Data set [1] has as its target T1, His-ABI5 (UniProt Q9SJN0 1-442).
T1 sequence: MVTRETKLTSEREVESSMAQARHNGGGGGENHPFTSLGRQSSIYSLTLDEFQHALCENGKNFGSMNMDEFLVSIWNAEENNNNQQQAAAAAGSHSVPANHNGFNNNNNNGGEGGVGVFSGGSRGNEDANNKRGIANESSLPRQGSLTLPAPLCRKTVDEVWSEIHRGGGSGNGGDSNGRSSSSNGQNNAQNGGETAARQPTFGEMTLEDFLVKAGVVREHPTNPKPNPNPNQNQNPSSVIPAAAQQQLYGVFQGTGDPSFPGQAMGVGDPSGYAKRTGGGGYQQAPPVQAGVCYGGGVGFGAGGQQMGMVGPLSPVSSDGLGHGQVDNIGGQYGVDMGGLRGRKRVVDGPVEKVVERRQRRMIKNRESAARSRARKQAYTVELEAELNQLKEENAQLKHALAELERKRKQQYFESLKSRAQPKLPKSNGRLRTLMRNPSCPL
The data set is described as follows: EMSA; suppressed by 50x and 100x unlabeled probe; Chemiluminescent EMSA Kit (Beyotime); binding buffer, salt, pH and temperature not stated (protein eluted in 100 mM HEPES, 500 mM imidazole, pH 7.5). The settings on record: protein: recombinant; tags: His (pET-30a); label: biotin; blunt.

Data set [2] concerns the target T1, His-ABI5. Briefly: competition; 100x unlabeled mutated competitor against labeled N1; Chemiluminescent EMSA Kit (Beyotime); binding buffer, salt, pH and temperature not stated (protein eluted in 100 mM HEPES, 500 mM imidazole, pH 7.5). The settings on record: protein: recombinant; tags: His (pET-30a); blunt. A general note: Mobility shift assays separate free from complexed probe on a gel.

Changes are numbered by the printed parent chain.

B1: proPME31 probe (50 bp) (dsDNA)
DNA 1: TTGAACAAAGAACTGTTACACGTAGAACCAAACAATATGATGAAAAGTAT
DNA 2: ATACTTTTCATCATATTGTTTGGTTCTACGTGTAACAGTTCTTTGTTCAA
For B1, the binding result with His-ABI5 [1] is on record as “binds”.

B2: proPME31 mutated probe (mComp) (dsDNA)
DNA 1: B1 DNA 1 with C19A, C21A, G22A, T23A
DNA 2: B1 DNA 2 with A28T, C29T, G30T, G32T
For B2, the binding result with His-ABI5 [2] is given as “no binding”.

The values are drawn from article PMC10869471, “Pectin methylesterase 31 is transcriptionally repressed by ABI5 to negatively regulate ABA-mediated inhibition of seed germination”.
